Target: His-FGF2, LMW FGF2 (residues 135-288, C211S/C229S) (human, UniProt P09038 135-288, C211S | C229S)
Assay: SPR

Sequence of His-FGF2, LMW FGF2 (residues 135-288, C211S/C229S) (P09038 135-288 C211S/C229S): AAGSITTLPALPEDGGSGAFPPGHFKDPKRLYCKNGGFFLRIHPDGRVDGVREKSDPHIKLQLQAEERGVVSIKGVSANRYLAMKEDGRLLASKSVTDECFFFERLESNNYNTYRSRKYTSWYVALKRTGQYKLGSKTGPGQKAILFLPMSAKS

B1: His-API5 (apoptosis inhibitor 5, residues 1-504, isoform 2), wild type (natural protein)
chain: MPTVEELYRNYGILADATEQVGQHKDAYQVILDGVKGGTKEKRLAAQFIPKFFKHFPELADSAINAQLDLCEDEDVSIRRQAIKELPQFATGENLPRVADILTQLLQTDDSAEFNLVNNALLSIFKMDAKGTLGGLFSQILQGEDIVRERAIKFLSTKLKTLPDEVLTKEVEELILTESKKVLEDVTGEEFVLFMKILSGLKSLQTVSGRQQLVELVAEQADLEQTFNPSDPDCVDRLLQCTRQAVPLFSKNVHSTRFVTYFCEQVLPNLGTLTTPVEGLDIQLEVLKLLAEMSSFCGDMEKLETNLRKLFDKLLEYMPLPPEEAENGENAGNEEPKLQFSYVECLLYSFHQLGRKLPDFLTAKLNAEKLKDFKIRLQYFARGLQVYIRQLRLALQGKTGEALKTEENKIKVVALKITNNINVLIKDLFHIPPSYKSTVTLSWKPVQKVEIGQKRASEDTTSGSPPKKSSAGPKRDARQIYNPPSGKYSSNLGNFNYERSLQGK
- koff: 0.00474 s⁻¹
